Blank lines part the entries; values can stand above or below the molecule they belong to. Non-standard residues stand in square brackets, D forms with d. No end group written: not given here.
Assays:
[1] = biological target: T1, human activated factor IX (human FIXa) (human, UniProt P00740 47-191; P00740 227-461); test: cell-based or functional assay
[2] = biological target: T1, human activated factor IX (human FIXa); test: cell-based or functional assay; remark: listed apart in the source
[3] = biological target: T2, human coagulation factor (F) IX (human, UniProt P00740 47-461); test: Western blot and ELISA
T2 construct: also called Factor IX; factor IX

[4] = biological target: T1, human activated factor IX (human FIXa); test: cell-based or functional assay; remark: listed apart in the source

T2 sequence (P00740 47-461 limits assumed): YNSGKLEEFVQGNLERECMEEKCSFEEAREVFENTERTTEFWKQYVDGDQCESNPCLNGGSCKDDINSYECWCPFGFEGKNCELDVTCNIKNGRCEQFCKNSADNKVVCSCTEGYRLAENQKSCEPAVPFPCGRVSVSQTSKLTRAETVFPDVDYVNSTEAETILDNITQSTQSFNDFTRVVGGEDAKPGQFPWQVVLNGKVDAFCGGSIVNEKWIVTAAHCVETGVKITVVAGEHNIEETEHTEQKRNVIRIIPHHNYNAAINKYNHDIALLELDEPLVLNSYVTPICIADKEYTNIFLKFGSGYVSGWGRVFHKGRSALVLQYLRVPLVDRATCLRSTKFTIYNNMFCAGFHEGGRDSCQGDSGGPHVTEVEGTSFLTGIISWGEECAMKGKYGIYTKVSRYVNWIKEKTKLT

Molecule: unspecific mouse IgG (antibody)
- clotting time, aPTT one-stage assay, FVIII deficient plasma, 50 ng FIXa, 0.23 µg antibody [1]: 104 s
- clotting time, aPTT one-stage assay, FVIII deficient plasma, 50 ng FIXa, 0.34 µg antibody [1]: 104 s
- clotting time, aPTT one-stage assay, FVIII deficient plasma, 50 ng FIXa, 0.45 µg antibody [1]: 102 s
- clotting time, aPTT one-stage assay, FVIII deficient plasma, 50 ng FIXa, 0.9 µg antibody [1]: 102 s
- clotting time, aPTT one-stage assay, FVIII deficient plasma, 50 ng FIXa, 1.35 µg antibody [1]: 103 s
- clotting time, aPTT one-stage assay, FVIII deficient plasma, 50 ng FIXa, 1.8 µg antibody [1]: 102 s
- clotting time, aPTT one-stage assay, FVIII deficient plasma, 50 ng FIXa, 2.25 µg antibody [1]: 103 s
- clotting time, aPTT one-stage assay, FVIII deficient plasma, 50 ng FIXa, 4.5 µg antibody [1]: 103 s
- clotting time, aPTT one-stage assay, FVIII deficient plasma, 50 ng FIXa, 9 µg antibody [1]: 102 s

Molecule: Factor VIII (from UniProt P00451 20-2351)
- clotting time, aPTT one-stage (Pathromtin SL), FVIII deficient plasma, 2.2 nM human FIXa, FVIII 6.25 mU/ml, average (IZ buffer 108) [1]: 59 s
- clotting time, aPTT one-stage (Pathromtin SL), FVIII deficient plasma, 2.2 nM human FIXa, FVIII 6.25 mU/ml, duplicate 1 (IZ buffer 107.9) [1]: 58.6 s
- clotting time, aPTT one-stage (Pathromtin SL), FVIII deficient plasma, 2.2 nM human FIXa, FVIII 6.25 mU/ml, duplicate 2 (IZ buffer 108.7) [1]: 58.9 s
- clotting time, aPTT one-stage (Pathromtin SL), FVIII deficient plasma, 2.2 nM human FIXa, FVIII 12.5 mU/ml, average (IZ buffer 108) [1]: 53 s
- clotting time, aPTT one-stage (Pathromtin SL), FVIII deficient plasma, 2.2 nM human FIXa, FVIII 12.5 mU/ml, duplicate 1 (IZ buffer 107.9) [1]: 52.9 s
- clotting time, aPTT one-stage (Pathromtin SL), FVIII deficient plasma, 2.2 nM human FIXa, FVIII 12.5 mU/ml, duplicate 2 (IZ buffer 108.7) [1]: 53.6 s

Molecule: RRREGGGYYVNWYFDRRR [peptide A1/3]
- clotting time, aPTT one-stage assay (Table 4), 2.2 nM FIXa, peptide 1.25 µM, average (IZ buffer 96) [2]: 95 s
- clotting time, aPTT one-stage assay (Table 4), 2.2 nM FIXa, peptide 1.25 µM, duplicate 1 (IZ buffer 96) [2]: 94.4 s
- clotting time, aPTT one-stage assay (Table 4), 2.2 nM FIXa, peptide 1.25 µM, duplicate 2 (IZ buffer 96) [2]: 95 s
- clotting time, aPTT one-stage assay (Table 4), 2.2 nM FIXa, peptide 2.5 µM, average (IZ buffer 96) [2]: 93 s
- clotting time, aPTT one-stage assay (Table 4), 2.2 nM FIXa, peptide 2.5 µM, duplicate 1 (IZ buffer 96) [2]: 93.6 s
- clotting time, aPTT one-stage assay (Table 4), 2.2 nM FIXa, peptide 2.5 µM, duplicate 2 (IZ buffer 96) [2]: 93.3 s
- clotting time, aPTT one-stage assay (Table 4), 2.2 nM FIXa, peptide 5 µM, average (IZ buffer 96) [2]: 89 s
- clotting time, aPTT one-stage assay (Table 4), 2.2 nM FIXa, peptide 5 µM, duplicate 1 (IZ buffer 96) [2]: 89.7 s
- clotting time, aPTT one-stage assay (Table 4), 2.2 nM FIXa, peptide 5 µM, duplicate 2 (IZ buffer 96) [2]: 88.3 s
- clotting time, aPTT one-stage assay (Table 4), 2.2 nM FIXa, peptide 7.5 µM, average (IZ buffer 96) [2]: 81 s
- clotting time, aPTT one-stage assay (Table 4), 2.2 nM FIXa, peptide 7.5 µM, duplicate 1 (IZ buffer 96) [2]: 80.7 s
- clotting time, aPTT one-stage assay (Table 4), 2.2 nM FIXa, peptide 7.5 µM, duplicate 2 (IZ buffer 96) [2]: 80.5 s
- clotting time, aPTT one-stage assay (Table 4), 2.2 nM FIXa, peptide 10 µM, average (IZ buffer 96) [2]: 73 s
- clotting time, aPTT one-stage assay (Table 4), 2.2 nM FIXa, peptide 10 µM, duplicate 1 (IZ buffer 96) [2]: 72 s
- clotting time, aPTT one-stage assay (Table 4), 2.2 nM FIXa, peptide 10 µM, duplicate 2 (IZ buffer 96) [2]: 73.2 s
- clotting time, aPTT one-stage assay (Table 4), 2.2 nM FIXa, peptide 12.5 µM, average (IZ buffer 96) [2]: 67 s
- clotting time, aPTT one-stage assay (Table 4), 2.2 nM FIXa, peptide 12.5 µM, duplicate 1 (IZ buffer 96) [2]: 65 s
- clotting time, aPTT one-stage assay (Table 4), 2.2 nM FIXa, peptide 12.5 µM, duplicate 2 (IZ buffer 96) [2]: 68 s
- clotting time, aPTT one-stage assay (Table 4), 2.2 nM FIXa, peptide 15 µM, average (IZ buffer 96) [2]: 56 s
- clotting time, aPTT one-stage assay (Table 4), 2.2 nM FIXa, peptide 15 µM, duplicate 1 (IZ buffer 96) [2]: 56.1 s
- clotting time, aPTT one-stage assay (Table 4), 2.2 nM FIXa, peptide 15 µM, duplicate 2 (IZ buffer 96) [2]: 55.5 s

Molecule: [dR][dR][dR]GEYGVYWNGDFY[dR][dR][dR] [peptide A1/3-Rd-srmb]
- clotting time, aPTT one-stage assay (Table 4), 2.2 nM FIXa, peptide 1.25 µM, average (IZ buffer 96) [2]: 103 s
- clotting time, aPTT one-stage assay (Table 4), 2.2 nM FIXa, peptide 1.25 µM, duplicate 1 (IZ buffer 96) [2]: 101 s
- clotting time, aPTT one-stage assay (Table 4), 2.2 nM FIXa, peptide 1.25 µM, duplicate 2 (IZ buffer 96) [2]: 105 s
- clotting time, aPTT one-stage assay (Table 4), 2.2 nM FIXa, peptide 2.5 µM, average (IZ buffer 96) [2]: 105 s
- clotting time, aPTT one-stage assay (Table 4), 2.2 nM FIXa, peptide 2.5 µM, duplicate 1 (IZ buffer 96) [2]: 105 s
- clotting time, aPTT one-stage assay (Table 4), 2.2 nM FIXa, peptide 2.5 µM, duplicate 2 (IZ buffer 96) [2]: 104 s
- clotting time, aPTT one-stage assay (Table 4), 2.2 nM FIXa, peptide 5 µM, average (IZ buffer 96) [2]: 108 s
- clotting time, aPTT one-stage assay (Table 4), 2.2 nM FIXa, peptide 5 µM, duplicate 1 (IZ buffer 96) [2]: 108 s
- clotting time, aPTT one-stage assay (Table 4), 2.2 nM FIXa, peptide 5 µM, duplicate 2 (IZ buffer 96) [2]: 108 s
- clotting time, aPTT one-stage assay (Table 4), 2.2 nM FIXa, peptide 7.5 µM, average (IZ buffer 96) [2]: 107 s
- clotting time, aPTT one-stage assay (Table 4), 2.2 nM FIXa, peptide 7.5 µM, duplicate 1 (IZ buffer 96) [2]: 108 s
- clotting time, aPTT one-stage assay (Table 4), 2.2 nM FIXa, peptide 7.5 µM, duplicate 2 (IZ buffer 96) [2]: 107 s
- clotting time, aPTT one-stage assay (Table 4), 2.2 nM FIXa, peptide 10 µM, average (IZ buffer 96) [2]: 108 s
- clotting time, aPTT one-stage assay (Table 4), 2.2 nM FIXa, peptide 10 µM, duplicate 1 (IZ buffer 96) [2]: 107 s
- clotting time, aPTT one-stage assay (Table 4), 2.2 nM FIXa, peptide 10 µM, duplicate 2 (IZ buffer 96) [2]: 108 s
- clotting time, aPTT one-stage assay (Table 4), 2.2 nM FIXa, peptide 12.5 µM, average (IZ buffer 96) [2]: 108 s
- clotting time, aPTT one-stage assay (Table 4), 2.2 nM FIXa, peptide 12.5 µM, duplicate 1 (IZ buffer 96) [2]: 108 s
- clotting time, aPTT one-stage assay (Table 4), 2.2 nM FIXa, peptide 12.5 µM, duplicate 2 (IZ buffer 96) [2]: 108 s
- clotting time, aPTT one-stage assay (Table 4), 2.2 nM FIXa, peptide 15 µM, average (IZ buffer 96) [2]: 113 s
- clotting time, aPTT one-stage assay (Table 4), 2.2 nM FIXa, peptide 15 µM, duplicate 1 (IZ buffer 96) [2]: 113 s
- clotting time, aPTT one-stage assay (Table 4), 2.2 nM FIXa, peptide 15 µM, duplicate 2 (IZ buffer 96) [2]: 112 s

More lines, now with the values ahead:

- clotting time, aPTT one-stage assay (Table 4), 2.2 nM FIXa, peptide 1.25 µM, average (IZ buffer 96) [2]: 96 s
- clotting time, aPTT one-stage assay (Table 4), 2.2 nM FIXa, peptide 1.25 µM, duplicate 1 (IZ buffer 96) [2]: 96.6 s
- clotting time, aPTT one-stage assay (Table 4), 2.2 nM FIXa, peptide 1.25 µM, duplicate 2 (IZ buffer 96) [2]: 96 s
- clotting time, aPTT one-stage assay (Table 4), 2.2 nM FIXa, peptide 2.5 µM, average (IZ buffer 96) [2]: 95 s
- clotting time, aPTT one-stage assay (Table 4), 2.2 nM FIXa, peptide 2.5 µM, duplicate 1 (IZ buffer 96) [2]: 94.4 s
- clotting time, aPTT one-stage assay (Table 4), 2.2 nM FIXa, peptide 2.5 µM, duplicate 2 (IZ buffer 96) [2]: 94.7 s
- clotting time, aPTT one-stage assay (Table 4), 2.2 nM FIXa, peptide 5 µM, average (IZ buffer 96) [2]: 86 s
- clotting time, aPTT one-stage assay (Table 4), 2.2 nM FIXa, peptide 5 µM, duplicate 1 (IZ buffer 96) [2]: 86 s
- clotting time, aPTT one-stage assay (Table 4), 2.2 nM FIXa, peptide 5 µM, duplicate 2 (IZ buffer 96) [2]: 85.1 s
- clotting time, aPTT one-stage assay (Table 4), 2.2 nM FIXa, peptide 7.5 µM, average (IZ buffer 96) [2]: 82 s
- clotting time, aPTT one-stage assay (Table 4), 2.2 nM FIXa, peptide 7.5 µM, duplicate 1 (IZ buffer 96) [2]: 80.9 s
- clotting time, aPTT one-stage assay (Table 4), 2.2 nM FIXa, peptide 7.5 µM, duplicate 2 (IZ buffer 96) [2]: 82.2 s
- clotting time, aPTT one-stage assay (Table 4), 2.2 nM FIXa, peptide 10 µM, average (IZ buffer 96) [2]: 76 s
- clotting time, aPTT one-stage assay (Table 4), 2.2 nM FIXa, peptide 10 µM, duplicate 1 (IZ buffer 96) [2]: 74.2 s
- clotting time, aPTT one-stage assay (Table 4), 2.2 nM FIXa, peptide 10 µM, duplicate 2 (IZ buffer 96) [2]: 77.2 s
- clotting time, aPTT one-stage assay (Table 4), 2.2 nM FIXa, peptide 12.5 µM, average (IZ buffer 96) [2]: 73 s
- clotting time, aPTT one-stage assay (Table 4), 2.2 nM FIXa, peptide 12.5 µM, duplicate 1 (IZ buffer 96) [2]: 72.3 s
- clotting time, aPTT one-stage assay (Table 4), 2.2 nM FIXa, peptide 12.5 µM, duplicate 2 (IZ buffer 96) [2]: 73.7 s
- clotting time, aPTT one-stage assay (Table 4), 2.2 nM FIXa, peptide 15 µM, average (IZ buffer 96) [2]: 75 s
- clotting time, aPTT one-stage assay (Table 4), 2.2 nM FIXa, peptide 15 µM, duplicate 1 (IZ buffer 96) [2]: 76.1 s
- clotting time, aPTT one-stage assay (Table 4), 2.2 nM FIXa, peptide 15 µM, duplicate 2 (IZ buffer 96) [2]: 74.4 s
Molecule: [dR][dR][dR]EGGGYYVNWYFD[dR][dR][dR] [peptide A1/3-Rd]

- binding result [3]: no binding
B1: irrelevant monoclonal antibody #8860 (antibody, V domains shown)
VH: EVQLQQSGPELVKPGASVKISCKASGYAFSSSWMNWVKQRPGQGLEWIGRIYPGNGDTNYNGKFKGKATLTADKSSSTAYMQLSSLTSVDSAVYFCADGNVYYYAMDYWGQGTSVTVSS
VL: QIVLTQSPASLAVSLGQRATISCRASKSVSTSGYSYMHWYQQKPGQPPKLLIYLASNLESGVPARFSGSGSGTDFTLNIHPVEEEDAATYYCQHSRELPRTFGGGTKLEIKR
notes: Tested as the monoclonal antibody

- amidolytic activity of FIXa (cleavage of CH3SO2-D-CHG-Gly-Arg-pNA, OD405), 20 mU FIXa (Stago), various amounts of antibody [4]: ≥ 2 fold
B2: monoclonal antibody 198/B1 (antibody, V domains shown)
VH: EVQLQESGGGLVKPGGSLKLSCAASGFTFSSYTMSWVRQTPEKRLEWVATISSGGSSTYYPDSVKGRFTISRDNAKNTLYLQMSSLRSEDTAMYYCTREGGGFTVNWYFDVWGAGTLVTVSA
VL: ENVLTQSPASLAVSLGQRATISCRASESVDSYGYNFMHWYQQIPGQPPKLLIYRASNLESGIPARFSGSGSRTDFTLTINPVEADDVATYYCQQSNEDPLTFGTGTRLEIKR
